From patent publication US10888549B2, “Pharmaceutical agents targeting cancer stem cells” (THE JOHNS HOPKINS UNIVERSITY, priority 2016, dated 2021)

Legend:
YAP1 = YAP1 expression by western blotting; format: cell-based, human; details: basal-type cells
Experimental: Whole cell lysates were extracted using RIPA buffer (Thermo Scientific) supplemented with 10 μL/mL Halt™ Protease Inhibitor Cocktail Kit (Life Technologies) and 30 μL/mL Halt™ Phosphatase Inhibitor Cocktail Kit (Life Technologies). The protein concentrations were determined using a Pierce™ BCA Protein Assay Kit (Life Technologies), and the protein were separated on NuPAGE® 4-12% Bis-Tris Gel (Life Technologies) according to the manufacturer's protocol. COX2 (D5H5), NANOG (D73G4), OCT4 (D7O5Z), CD133 (A3G6K), Snail (C15D3), ZEB1 (D80D3), Vimentin (D21H3), CDH2 (D4R1H), CDH1 (24E10), p-EGFR (D7A5), EGFR (D38B1), p-AKT (D9E), AKT (cat #, 9272), p-ERK (D13.14.4E), ERK (137F5), p-YAP1 (D9W2I), p-Src (cat #, 2101), Src (36D10), DNMT1 (D63A6), DNMT3A (D23G1), and DNMT3B (D7O7O) antibodies were obtained from Cell Signaling Technology (Danvers, Mass., USA), except for SOX2 (EPR3131; Abcam, Cambridge, USA), YAP1 (ab52771; Abcam), CD24 (cat #, AF5247-SP; R&D Systems, Minneapolis USA) and β-actin (A2228; Sigma-Aldrich). Secondary horseradish peroxidase (HRP)-conjugated antibodies were obtained from Cell Signaling Technology, and chemiluminescent detection of HRP-labeled antibodies was performed using Amersham ECL Prime Western Blotting Detection Reagent (GE Healthcare, Piscataway, USA). As loading control, β-actin was used.

SOX2 = SOX2 expression by western blotting / flow cytometry; format: cell-based, human; details: basal-type cells
Experimental: Whole cell lysates were extracted using RIPA buffer (Thermo Scientific) supplemented with 10 μL/mL Halt™ Protease Inhibitor Cocktail Kit (Life Technologies) and 30 μL/mL Halt™ Phosphatase Inhibitor Cocktail Kit (Life Technologies). The protein concentrations were determined using a Pierce™ BCA Protein Assay Kit (Life Technologies), and the protein were separated on NuPAGE® 4-12% Bis-Tris Gel (Life Technologies) according to the manufacturer's protocol. […]
For extracellular staining, cells (1×10^6/100 μL stain buffer) were incubated with PE-Vio770-conjugated anti-human CD133 (293C3; Miltenyi Biotec, Auburn, USA) or PE-conjugated anti-human CD24 antibody (cat #, 560991; BD Biosciences) for 30 min at 4° C. in dark. […] Data were acquired on a BD FACSCalibur flow cytometer (BD Biosciences) using BD CellQuest Pro software (BD Biosciences) and analyzed with FlowJo software v10.1 (Tree Star, Ashland, USA).

B1: EGF: Recombinant human epidermal growth factor (EGF) (protein, UniProt P01133 23-1207, looked up)
Pro-epidermal growth factor: PQHWSCPEGTLAGNGNSTCVGPAPFLIFSHGNSIFRIDTEGTNYEQLVVDAGVSVIMDFHYNEKRIYWVDLERQLLQRVFLNGSRQERVCNIEKNVSGMAINWINEEVIWSNQQEGIITVTDMKGNNSHILLSALKYPANVAVDPVERFIFWSSEVAGSLYRADLDGVGVKALLETSEKITAVSLDVLDKRLFWIQYNREGSNSLICSCDYDGGSVHISKHPTQHNLFAMSLFGDRIFYSTWKMKTIWIANKHTGKDMVRINLHSSFVPLGELKVVHPLAQPKAEDDTWEPEQKLCKLRKGNCSSTVCGQDLQSHLCMCAEGYALSRDRKYCEDVNECAFWNHGCTLGCKNTPGSYYCTCPVGFVLLPDGKRCHQLVSCPRNVSECSHDCVLTSEGPLCFCPEGSVLERDGKTCSGCSSPDNGGCSQLCVPLSPVSWECDCFPGYDLQLDEKSCAASGPQPFLLFANSQDIRHMHFDGTDYGTLLSQQMGMVYALDHDPVENKIYFAHTALKWIERANMDGSQRERLIEEGVDVPEGLAVDWIGRRFYWTDRGKSLIGRSDLNGKRSKIITKENISQPRGIAVHPMAKRLFWTDTGINPRIESSSLQGLGRLVIASSDLIWPSGITIDFLTDKLYWCDAKQSVIEMANLDGSKRRRLTQNDVGHPFAVAVFEDYVWFSDWAMPSVMRVNKRTGKDRVRLQGSMLKPSSLVVVHPLAKPGADPCLYQNGGCEHICKKRLGTAWCSCREGFMKASDGKTCLALDGHQLLAGGEVDLKNQVTPLDILSKTRVSEDNITESQHMLVAEIMVSDQDDCAPVGCSMYARCISEGEDATCQCLKGFAGDGKLCSDIDECEMGVPVCPPASSKCINTEGGYVCRCSEGYQGDGIHCLDIDECQLGEHSCGENASCTNTEGGYTCMCAGRLSEPGLICPDSTPPPHLREDDHHYSVRNSDSECPLSHDGYCLHDGVCMYIEALDKYACNCVVGYIGERCQYRDLKWWELRHAGHGQQQKVIVVAVCVVVLVMLLLLSLWGAHYYRTQKLLSKNPKNPYEESSRDVRSRRPADTEDGMSSCPQPWFVVIKEHQDLKNGGQPVAGEDGQAADGSMQPTSWRQEPQLCGMGTEQGCWIPVSSDKGSCPQVMERSFHMPSYGTQTLEGGVEKPHSLLSANPLWQQRALDPPHQMELTQ
modifications: Pro-epidermal growth factor
YAP1
  YAP1 expression: increased
SOX2
  SOX2 expression: increased
